This passage reports Kd, percent dimer and stoichiometry N results from PMC3401516.

Broadly, the Kd is the concentration at which binding is half-saturated. The term stoichiometry N denotes the number of molecules, sites or subunits per partner or assembly.

One assay deals with ERK2 (Rattus norvegicus) (UniProt P63086). The note with it: cited from earlier work.
The target in assay [1] is activated His6-tagged ERK2 (cleavable His6-tag construct, tag not cleaved) (Rattus norvegicus) (UniProt P63086). The assay is described as follows: SEC-MALS.

Take ERK2 (from UniProt P63086): the Kd in the assay with ERK2 (Rattus norvegicus) was 7 nM.

In assay [1], “activated His6-tagged ERK2 (cleavable His6-tag construct, tag not cleaved) (from UniProt P63086 1-358) (enzyme)” registered a percent dimer of 30% and a stoichiometry N of 2.
